Measured values taken from publication PMC5834517.

Experiments:
[1] = biological target: Mut FcγRIIIa (non-glycosylated); assay: SPR; Biacore T200; FcγRIIIa (WT or Mut) captured on a Ni2+-loaded NTA sensor chip at 350 RU; Rituximab fractions injected as analyte at 30 μL/min; PBS with 0.005% Tween-20; global fit, 1:1 Langmuir model; KD = koff/kon
[2] = biological target: WT FcγRIIIa (glycosylated, expressed by HEK293 cells) (UniProt P08637)
[3] = biological target: Mut FcγRIIIa (engineered, non-glycosylated Fcγ receptor IIIa) (UniProt P08637); assay: SPR; van't Hoff analysis: temperature dependence of KD; Mut FcγRIIIa on the surface, antibody fractions as analyte

Row | Kd [1] | EC50 of FcγRIIIa activation (NFAT-driven luciferase in Jurkat/FcγRIIIa/NFAT-Luc cells with Daudi cells; corresponds to ADCC) [2] | dH [3] | Substance
1 | 1490 nM |  |  | Rituximab, peak 1 of the FcγRIIIa-immobilized column (antibody)
2 |  | 0.2 µg/mL | -13.3 kcal/mol | Rituximab fraction Peak 1 of the FcγRIIIa column (antibody)
3 | 1010 nM |  |  | Rituximab, peak 2 of the FcγRIIIa-immobilized column (antibody)
4 |  | 0.13 µg/mL |  | Rituximab (Roche), before separation (antibody)
5 |  | 0.05 µg/mL | -13.1 kcal/mol | Rituximab fraction Peak 3 of the FcγRIIIa column (antibody)
6 |  | 0.19 µg/mL | -13.3 kcal/mol | Rituximab fraction Peak 2 of the FcγRIIIa column (antibody)
7 | 701 nM |  |  | Rituximab, peak 3 of the FcγRIIIa-immobilized column (antibody)
